Source: US20040029280A1

Assays:
[1] = biological target: Recombinant trimeric Ad5 knob protein with an N-terminal 6-His tag (adenovirus type 5 (Ad5)) (UniProt P11818); assay: ELISA on His-tagged Ad5 knob on Ni-NTA strips, detection with anti-FGF2 antibody and anti-rabbit HRP; control
[2] = biological target: adenoviral fiber knob on AdCMVLuc (Ad5 vector) virions (adenovirus type 5 (Ad5)) (UniProt P11818); assay: cell-based or functional assay
[3] = biological target: recombinant Ad5 knob (knob domain of the adenovirus type 5 fiber protein) (adenovirus type 5 (Ad5)) (UniProt P11818); assay: Biacore analysis
FGF receptors = assay: cell-based or functional assay
[4] = biological target: Recombinant trimeric Ad5 knob protein with an N-terminal 6-His tag (adenovirus type 5 (Ad5)) (UniProt P11818); assay: ELISA on His-tagged Ad5 knob on Ni-NTA strips, detection with anti-FGF2 antibody and anti-rabbit HRP; wells without knob gave 0.35+0.04

FGF2 mutein (C96S) (from UniProt P09038 1-155) (ligand)
absorbance [1]: 1.55 absorbance

Fab fragment of 1D6.14 anti-Ad5 knob neutralizing antibody
block of AdCMV-Luc transduction (luciferase), CVU-1 cells [2]: 20% | block of AdCMV-Luc transduction (luciferase), KS-SLK cells [2]: > 50% | block of AdCMV-Luc transduction (luciferase), KSY-1 cells [2]: > 50% | block of AdCMV-Luc transduction (luciferase), RW376 cells [2]: > 50% | inhibition of AdCMVLuc infection (luciferase), 3T3 cells [2]: 97% | inhibition of AdCMVLuc infection (luciferase), D54 MG cells [2]: 98.3% | inhibition of AdCMVLuc infection (luciferase), PANC-1 cells [2]: 98.8% | inhibition of AdCMVLuc infection (luciferase), SKOV3.1p1 cells [2]: 69.3% | inhibition of AdCMVLuc transfection (luciferase), HUVECs [2]: 87% | Kd [3]: 2.1 nM

Fab-FGF2 conjugate (1D6.14 Fab chemically conjugated to FGF2 C96S mutein) (from UniProt P09038 1-155)
inhibition by anti-FGF2 antibody of infection by the Ad-Fab-FGF2 complex (luciferase), 3T3 cells (FGF receptors): 96.1% | inhibition by anti-FGF2 antibody of infection by the Ad-Fab-FGF2 complex (luciferase), D54 MG cells (FGF receptors): 94% | inhibition by anti-FGF2 antibody of infection by the Ad-Fab-FGF2 complex (luciferase), PANC-1 cells (FGF receptors): 96.3% | inhibition by anti-FGF2 antibody of infection by the Ad-Fab-FGF2 complex (luciferase), SKOV3.1p1 cells (FGF receptors): 90.1% | absorbance [4]: 3.7 absorbance
